One test addresses HLA-A*23:01. Description: IEDB peptide-MHC binding, purified MHC/competitive/radioactivity; filed as Kd, often an IC50 or EC50 that approximates it; ≥ and ≤ were set here for values at or beyond the usual limits of such assays.
The next test concerns the target HLA-A*30:02. Described as above.
Another test deals with HLA-A*01:01. Described as above.
The target in a further test is HLA-A*24:02. Described as above.
The target of the next test is HLA-A*29:02. The description is as above.
The next test concerns the target HLA-A*26:01. Described as above.
Test [1] has as its target HLA-A*11:01. Description: IEDB peptide-MHC binding, purified MHC/direct/fluorescence; filed as Kd, often an IC50 or EC50 that approximates it; ≥ and ≤ were set here for values at or beyond the usual limits of such assays. The settings on record: source organism: SARS-CoV1.
The target of test [2] is HLA-B*15:01. The description is as above. The following applies: source organism: SARS-CoV1.
The next test addresses HLA-B*57:01. Described as above. The settings on record: source organism: Yersinia pestis Antiqua.
The next test concerns the target HLA-B*58:01. The description is as above. The settings on record: source organism: Yersinia pestis Antiqua.
The target in test [3] is HLA-B*40:01. The test is described as above.
The target in the next test is HLA-B*18:01. The test is described as above.
Another test deals with HLA-B*44:03. Description: IEDB peptide-MHC binding, purified MHC/competitive/radioactivity; filed as Kd, often an IC50 or EC50 that approximates it; ≥ and ≤ were set here for values at or beyond the usual limits of such assays.
The next test addresses HLA-B*44:02. Described as above.
Test [4] deals with HLA-B*40:01. Described as above.
Test [5] addresses HLA-B*15:01. The description is as above.
Test [6] has as its target HLA-A*11:01. The test is described as above. The settings on record: source organism: SARS coronavirus Tor2.
Another test has as its target HLA-A*03:01. The description is as above. The settings on record: source organism: SARS coronavirus Tor2.
For another test, the target named is HLA-A*68:01. The test is described as above. The following applies: source organism: SARS coronavirus Tor2.
The target in the next test is HLA-A*31:01. The test is described as above. The following applies: source organism: SARS coronavirus Tor2.
Another test has as its target HLA-A*33:01. Described as above. The following applies: source organism: SARS coronavirus Tor2.
For another test, the target named is HLA-B*46:01. Description: IEDB peptide-MHC binding, purified MHC/direct/fluorescence; filed as Kd, often an IC50 or EC50 that approximates it; ≥ and ≤ were set here for values at or beyond the usual limits of such assays.
For a further test, the target named is HLA-A*32:01. The experiment in a line: IEDB peptide-MHC binding, purified MHC/competitive/radioactivity; filed as Kd, often an IC50 or EC50 that approximates it; ≥ and ≤ were set here for values at or beyond the usual limits of such assays. The following applies: source organism: Dengue virus 2 Jamaica/1409/1983.
Where [7] appears, read: source organism: SARS coronavirus Tor2.
Where [8] appears, read: source organism: Mammarenavirus lassaense.
Setting [9] is: source organism: Dengue virus 1 Brazil/97-11/1997.
Setting [10] is: source organism: Dengue virus 2 Jamaica/1409/1983.
The mark [11] stands for this setting: source organism: Dengue virus 4 Dominica/814669/1981.
Setting [12] is: source organism: Dengue virus 4 Philippines/H241/1956.
The mark [13] stands for this setting: source organism: Vaccinia virus WR.
The mark [14] stands for this setting: source organism: Dengue virus 3 Martinique/1243/1999.
Setting [15] is: source organism: Francisella tularensis subsp. holarctica LVS.
[16] abbreviates: source organism: Mammarenavirus tacaribeense.
[17] abbreviates: source organism: Lassa virus GA391.

Some results are limits rather than exact numbers.

Broadly, the Kd is the equilibrium constant for the complex coming apart. Regarding LQSLENVAY, the dissociation constant (Kd) was at least 77800 nM with HLA-A*23:01 (setting [7]); 617 nM with HLA-A*30:02 (setting [7]); at least 42300 nM in the test with HLA-A*01:01 (setting [7]); at least 77600 nM with HLA-A*24:02 (setting [7]); 6670 nM with HLA-A*29:02 (setting [7]); at least 81500 nM with HLA-A*26:01 (setting [7]). For the same sequence, the figures for the dissociation constant Kd with HLA-A*11:01 [1] and with HLA-B*15:01 [2] were at least 44700 nM and 161 nM, respectively.

MANICWIYY: the Kd with HLA-B*57:01 came out at 256 nM; in the test with HLA-B*58:01, 43.3 nM.

MEGLKLLSL: the equilibrium dissociation constant (Kd) in the test with HLA-B*40:01 [3] (setting [8]) turned out to be 160 nM; with HLA-B*18:01 (setting [8]), 222 nM.

Consider MEIRPVKEK, for which the dissociation constant Kd came to 1010 nM with HLA-B*44:03 (setting [9]) and 640 nM with HLA-B*44:02 (setting [9]).

As for MEKASFIEV, the dissociation constant (Kd) with HLA-B*40:01 [4] (setting [10]) is 1210 nM; in the test with HLA-B*44:02 (setting [10]), 320 nM.

Turning to MELIDGISL, the values for the Kd with HLA-B*44:03 (setting [11]), in the test with HLA-B*40:01 [4] (setting [11]) and with HLA-B*44:02 (setting [11]) were 226 nM, 2.29 nM and 375 nM, respectively.

As for MERFNCSSF, the dissociation constant (Kd) with HLA-B*15:01 [5] (source organism: Vaccinia virus Copenhagen) was 1.62 nM.

Regarding NEMGLLETT, in the test with HLA-B*44:03 (setting [9]), the Kd worked out at 8030 nM.

For REIPERSWNT, the dissociation constant (Kd) with HLA-B*40:01 [4] (setting [12]) was determined as 1480 nM.

Consider RIIPKNNHA, for which the Kd with HLA-B*15:01 [5] (setting [13]) was 444 nM.

For the sequence RLKGESRKTF, the Kd in the test with HLA-B*15:01 [5] (setting [14]) came to 300 nM.

For the sequence RQEKGKSLLF, in the test with HLA-B*15:01 [5] (setting [10]), the Kd was determined as 42.3 nM.

Turning to RQRTPQDNQL, the equilibrium dissociation constant (Kd) in the test with HLA-B*15:01 [5] (setting [9]) was 112 nM.

For SAAAYFVGY, the Kd in the test with HLA-A*23:01 (setting [7]) was 6100 nM; with HLA-A*11:01 [6] it was 32.8 nM; with HLA-A*03:01, 89.7 nM; in the test with HLA-A*68:01 it was 106 nM; with HLA-A*30:02 (setting [7]), 17.7 nM; with HLA-A*31:01, at least 26300 nM. In addition, the Kd in the test with HLA-A*01:01 (setting [7]) is 311 nM; in the test with HLA-A*24:02 (setting [7]) it was 3870 nM; with HLA-A*33:01, at least 21500 nM; with HLA-A*29:02 (setting [7]), 65.5 nM; with HLA-A*26:01 (setting [7]), 85.5 nM.

Take SEIRWEESF: in the test with HLA-B*15:01 [5] (setting [13]), the Kd turned out to be 46.9 nM.

For the sequence SENEVKLTI, the dissociation constant Kd turned out to be 14.1 nM with HLA-B*44:03 (setting [10]), 373 nM in the test with HLA-B*40:01 [4] (setting [10]) and 0.814 nM in the test with HLA-B*44:02 (setting [10]).

As to SETFSMGLLC, the dissociation constant (Kd) with HLA-B*44:03 (setting [12]) worked out at 82.9 nM.

Regarding SLVMLLVHY, the equilibrium dissociation constant (Kd) with HLA-B*15:01 [5] (setting [12]) amounted to 419 nM; in the test with HLA-A*30:02 (setting [12]), 1600 nM.

As for SQEAEFTGY, in the test with HLA-B*46:01 (source organism: Yellow fever virus), the dissociation constant (Kd) was at least 20000 nM.

As to SQHNHRPGY, the Kd with HLA-B*15:01 [5] (setting [14]) came out at 91.2 nM; with HLA-A*30:02 (setting [14]) it was 28.7 nM.

In the case of TEIASLPTY, the values for the Kd with HLA-B*44:03 (setting [12]) and in the test with HLA-B*44:02 (setting [12]) were 18.5 nM and 13 nM, respectively.

Turning to TELKYSWKTW, the dissociation constant Kd is 23.9 nM with HLA-B*44:03 (setting [10]), 37.9 nM in the test with HLA-B*44:02 (setting [10]) and 4270 nM in the test with HLA-A*32:01.

As to VEDERFWDL, the Kd in the test with HLA-B*40:01 [4] (setting [9]) worked out at 155 nM.

With VEIGLGMPF, the Kd was 16.8 nM with HLA-B*40:01 [3] (setting [15]) and at most 1 nM with HLA-B*18:01 (setting [15]).

In the case of WENNIKLTVV, the Kd with HLA-B*40:01 [4] (setting [14]) turned out to be 443 nM.

For YCDPKRFFL, the Kd in the test with HLA-A*23:01 (setting [16]) was 7530 nM; with HLA-A*30:02 (setting [16]), at least 76900 nM; with HLA-A*01:01 (setting [16]), at least 29100 nM; with HLA-A*24:02 (setting [16]), 11300 nM; in the test with HLA-A*29:02 (setting [16]) it was at least 78900 nM; with HLA-A*26:01 (setting [16]), at least 77900 nM.

On to YCNYSRYWY, for which the dissociation constant (Kd) is at least 36900 nM with HLA-A*23:01 (setting [17]); 818 nM with HLA-A*30:02 (setting [17]); at least 34400 nM with HLA-A*01:01 (setting [17]); at least 77500 nM with HLA-A*24:02 (setting [17]); 1230 nM with HLA-A*29:02 (setting [17]); at least 77900 nM in the test with HLA-A*26:01 (setting [17]).

With YNNFYFYSF, the Kd in the test with HLA-B*15:01 [5] (setting [13]) stood at 1460 nM.

Take YQPEREKVY: in the test with HLA-B*46:01 (source organism: West Nile virus), the Kd is at least 20000 nM.

These data come from the Immune Epitope Database (IEDB).
